These results are taken from paper PMC6356861 (ACS Omega, 2019).

The data set deals with the molecule itself. In words: SAXS.

B1: simian virus 40 (SV40) major capsid protein VP1, as soluble VP1 pentamers (natural protein)
chain: APTKRKGSCPGAAPKKPKEPVQVPKLVIKGGIEVLGVKTGVDSFTEVECFLNPQMGNPDEHQKGLSKSLAAEKQFTDDSPDKEQLPCYSVARIPLPNINEDLTCGNILMWEAVTVKTEVIGVTAMLNLHSGTQKTHENGAGKPIQGSNFHFFAVGGEPLELQGVLANYRTKYPAQTVTPKNATVDSQQMNTDHKAVLDKDNAYPVECWVPDPSKNENTRYFGTYTGGENVPPVLHITNTATTVLLDEQGVGPLCKADSLYVSAVDICGLFTNTSGTQQWKGLPRYFKITLRKRSVKNPYPISFLLSDLINRRTQRVDGQPMIGMSSQVEEVRVYEDTEELPGDPDMIRYIDEFGQTTTRMQ
As to B1, the binding result was “binds”.
